According to publication PMC6312279, “Characterization of a protozoan Phosducin-like protein-3 (PhLP-3) reveals conserved redox activity” (PLoS ONE, 2018):
Values belong to the molecule of their own block, whether it stands above or below them.

Columns and labels:
[1] = biological target: T1, PbPhLP-3 (Plasmodium berghei, UniProt A0A509AN16); experiment: thioredoxin-coupled NADPH oxidation assay, […] nm; assay type: biochemical; details: PbTrxR/PbTrx-1/NADPH as reductant, pH 7.4, 25 °C; linear, non-saturating up to millimolar TBHP, authors suggest non-enzymatic mechanism
T1 construct: gene PBANKA_1204800
T1 sequence (A0A509AN16 1-193): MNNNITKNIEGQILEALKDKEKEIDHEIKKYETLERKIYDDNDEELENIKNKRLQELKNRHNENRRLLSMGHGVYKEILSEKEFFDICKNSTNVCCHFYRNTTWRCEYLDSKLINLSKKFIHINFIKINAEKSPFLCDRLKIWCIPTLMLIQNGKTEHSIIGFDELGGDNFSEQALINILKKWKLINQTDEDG

[2] = biological target: T2, HsPhLP-3 (Homo sapiens, UniProt O14530); experiment: thioredoxin-coupled NADPH oxidation assay, […] nm; assay type: biochemical; details: thioredoxin system/NADPH as reductant, millimolar TBHP needed; data not shown separately
T2 construct: gene TXNDC9
T2 sequence (O14530 1-226): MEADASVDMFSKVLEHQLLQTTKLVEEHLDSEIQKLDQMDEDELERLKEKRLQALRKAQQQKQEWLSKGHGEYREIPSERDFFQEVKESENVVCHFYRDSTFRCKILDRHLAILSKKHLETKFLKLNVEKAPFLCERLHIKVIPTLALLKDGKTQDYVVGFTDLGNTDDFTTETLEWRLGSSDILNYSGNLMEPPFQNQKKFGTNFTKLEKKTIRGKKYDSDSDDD

[3] = biological target: Plasmodium berghei Phosducin-like protein-3 (PbPhLP-3) (Plasmodium berghei)
[4] = biological target: T3, human PhLP-3 (HsPhLP-3; thioredoxin-domain containing protein 9, TXNDC9) (human) (UniProt O14530)
T3 sequence: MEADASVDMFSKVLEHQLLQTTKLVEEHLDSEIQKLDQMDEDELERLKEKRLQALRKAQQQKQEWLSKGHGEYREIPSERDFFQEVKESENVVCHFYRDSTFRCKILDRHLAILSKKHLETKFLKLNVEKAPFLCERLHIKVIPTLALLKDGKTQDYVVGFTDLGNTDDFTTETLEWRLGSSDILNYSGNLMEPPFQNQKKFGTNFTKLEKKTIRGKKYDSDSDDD

Molecule: CC(C)(C)OO [TBHP]
thioredoxin-coupled NADPH oxidation assay, 340 nm [1]: reduction of the compound was observed in the presence of PbPhLP-3
thioredoxin-coupled NADPH oxidation assay, 340 nm [2]: both PhLP-3 proteins investigated here reduce the oxidative compound TBHP

KM for PbTrx-1 in the Trx-reduction assay (initial velocities of NADPH oxidation at PbTrx-1 0.5–50 μM) [3]: 5.82 µM
Vmax in the Trx-reduction assay (initial velocities of NADPH oxidation at PbTrx-1 0.5–50 μM) [3]: 10.1 µM/min
kcat in the Trx-reduction assay (initial velocities of NADPH oxidation at PbTrx-1 0.5–50 μM) [3]: 0.0167 s⁻¹
kcat/KM (rate constant) in the Trx-reduction assay [3]: 2830 M⁻¹ s⁻¹
Molecule: Plasmodium berghei thioredoxin-1 (PbTrx-1) (natural protein)

KM in the Trx-reduction assay with PbTrxR, HsTrx-1 and HsPhLP-3 [4]: 6.53 µM
Vmax in the Trx-reduction assay with PbTrxR, HsTrx-1 and HsPhLP-3 [4]: 12.6 µM/min
kcat in the Trx-reduction assay with PbTrxR, HsTrx-1 and HsPhLP-3 [4]: 0.021 s⁻¹
kcat/KM (rate constant) in the Trx-reduction assay with PbTrxR, HsTrx-1 and HsPhLP-3 [4]: 3170 M⁻¹ s⁻¹
B1: human Trx-1 (HsTrx-1) (natural protein)
chain: MVKQIESKTAFQEALDAAGDKLVVVDFSATWCGPCKMIKPFFHSLSEKYSNVIFLEVDVDDCQDVASECEVKCMPTFQFFKKGQKVGEFSGANKEKLEATINELV
